# Data published in publication PMC1182330.
# Assays:
# [1] = system: RNase M5 WT (Bacillus subtilis)
# [2] = system: RNase M5 WT;ribosomal protein L18 (Bacillus subtilis;Bacillus subtilis)
substance,measurement,setting,value
5S rRNA precursor (pre-5S),K half,[1],2000 nM
same,binding signal (fold higher affinity than without L18),[2],10
